Data taken from article doi:10.1101/2020.10.20.346916 (bioRxiv, 2020).

Columns and labels:
[1] = molecular target: GFP-tagged membrane-anchored full-length MHV spike protein (MHV, strain A59 (assumed as for the …, UniProt P11224)); experiment: immunostaining of cells or tissue
[2] = molecular target: HCoV-OC43 spike ectodomain (HCoV-OC43, strain Paris, UniProt Q696P8); experiment: BLI
[3] = molecular target: HCoV-HKU1 spike ectodomain (HCoV-HKU1, strain Caen1, UniProt E0YJ44, strain); experiment: ELISA
[4] = molecular target: MHV spike S2 ectodomain (MHV, strain A59, UniProt P11224); experiment: ELISA
[5] = molecular target: SARS-CoV-2 spike ectodomain (SARS-CoV-2, Wuhan-Hu-1, UniProt P0DTC2); experiment: BLI

B1: human monoclonal antibody 1.6C7 (antibody, V domains shown)
VH: QVQLQQSGPGLVKPSQTLSLTCAISGDSVSSDSAAWNWIRQSPSRGLEWLGRTYFRSKWNNHYAVSVKSRITINPDTSKNQFSLLLNPVTPEDTAVYYCARATLARGALDYWGQGTLVTVSS
VL: not shown
binding result [1]: binds
Kd [2]: 5.28 nM
binding result [3]: no binding (tested: 10 μg/ml)
binding result [4]: binds

B2: human monoclonal antibody 28D9 (antibody, V domains shown)
VH: QVQLQQSGPGLVKPSQTLSLTCAISGDNVFSNSAAWNWIRQSPSRGLEWLGRTYYRSKWNNDYAVSVKGRITINPDTYKNQFSLQLNPVTPEDTAVYFCARVPMNRGGMDVWGQGTTVTVSS
VL: not shown
binding result [1]: binds
Kd [5]: 5.96 nM
Kd [2]: 7.45 nM
binding result [3]: no binding (tested: 10 μg/ml)
binding result [4]: binds
